Assay results published in patent US12371675B2, “Process and microorganism for synthesis of adipic acid from carboxylic acids” (THE GOVERNING COUNCIL OF THE UNIVERSITY OF TORONTO, priority 2015, dated 2025).

Substrate: O=C(O)CCCCCO
Assay: purified protein, by the assay type
Conditions: other: ATP/NADPH dependent reduction; pH 7.5

| Protein | Km | kcat | kcat/Km |
| --- | --- | --- | --- |
| Mycobacterium smegmatis carboxylate reductase MSMEG_5739, SEQ ID NO: 37 (Mycolicibacterium smegmatis MC2 155) (protein) MTSDVHDATDGVTETALDDEQSTRRIAELYATDPEFAAAAPLPAVVDAAHKPGLRLAEILQTLFTGYGDRPALGYRARELATDEGGRTVTRLLPRFDTLTYAQVWSRVQAVAAALRHNFAQPIYPGDAVATIGFASPDYLTLDLVCAYLGLVSVPLQHNAPVSRLAPILAEVEPRILTVSAEYLDLAVESVRDVNSVSQLVVFDHHPEVDDHRDALARAREQLAGKGIAVTTLDAIADEGAGLPAEPIYTADHDQRLAMILYTSGSTGAPKGAMYTEAMVARLWTMSFITGDPTPVINVNFMPLNHLGGRIPISTAVQNGGTSYFVPESDMSTLFEDLALVRPTELGLVPRVADMLYQHHLATVDRLVTQGADELTAEKQAGAELREQVLGGRVITGFVSTAPLAAEMRAFLDITLGAHIVDGYGLTETGAVTRDGVIVRPPVIDYKLIDVPELGYFSTDKPYPRGELLVRSQTLTPGYYKRPEVTASVFDRDGYYHTGDVMAETAPDHLVYVDRRNNVLKLAQGEFVAVANLEAVFSGAALVRQIFVYGNSERSFLLAVVVPTPEALEQYDPAALKAALADSLQRTARDAELQSYEVPADFIVETEPFSAANGLLSGVGKLLRPNLKDRYGQRLEQMYADIAATQANQLRELRRAAATQPVIDTLTQAAATILGTGSEVASDAHFTDLGGDSLSALTLSNLLSDFFGFEVPVGTIVNPATNLAQLAQHIEAQRTAGDRRPSFTTVHGADATEIRASELTLDKFIDAETLRAAPGLPKVTTEPRTVLLSGANGWLGRFLTLQWLERLAPVGGTLITIVRGRDDAAARARLTQAYDTDPELSRRFAELADRHLRVVAGDIGDPNLGLTPEIWHRLAAEVDLVVHPAALVNHVLPYRQLFGPNVVGTAEVIKLALTERIKPVTYLSTVSVAMGIPDFEEDGDIRTVSPVRPLDGGYANGYGNSKWAGEVLLREAHDLCGLPVATFRSDMILAHPRYRGQVNVPDMFTRLLLSLLITGVAPRSFYIGDGERPRAHYPGLTVDFVAEAVTTLGAQQREGYVSYDVMNPHDDGISLDVFVDWLIRAGHPIDRVDDYDDWVRRFETALTALPEKRRAQTVLPLLHAFRAPQAPLRGAPEPTEVFHAAVRTAKVGPGDIPHLDEALIDKYIRDLREFGLI | 8.33 ± 0.73 mM | 1.21 ± 0.04 s⁻¹ | 145 ± 4.4 M⁻¹ s⁻¹ |
| Mycobacterium smegmatis carboxylate reductase MSMEG_2956, SEQ ID NO: 70 (Mycolicibacterium smegmatis MC2 155) (protein) MTIETREDRFNRRIDHLFETDPQFAAARPDEAISAAAADPELRLPAAVKQILAGYADRPALGKRAVEFVTDEEGRTTAKLLPRFDTITYRQLAGRIQAVTNAWHNHPVNAGDRVAILGFTSVDYTTIDIALLELGAVSVPLQTSAPVAQLQPIVAETEPKVIASSVDFLADAVALVESGPAPSRLVVFDYSHEVDDQREAFEAAKGKLAGTGVVVETITDALDRGRSLADAPLYVPDEADPLTLLIYTSGSTGTPKGAMYPESKTATMWQAGSKARWDETLGVMPSITLNFMPMSHVMGRGILCSTLASGGTAYFAARSDLSTFLEDLALVRPTQLNFVPRIWDMLFQEYQSRLDNRRAEGSEDRAEAAVLEEVRTQLLGGRFVSALTGSAPISAEMKSWVEDLLDMHLLEGYGSTEAGAVFIDGQIQRPPVIDYKLVDVPDLGYFATDRPYPRGELLVKSEQMFPGYYKRPEITAEMFDEDGYYRTGDIVAELGPDHLEYLDRRNNVLKLSQGEFVTVSKLEAVFGDSPLVRQIYVYGNSARSYLLAVVVPTEEALSRWDGDELKSRISDSLQDAARAAGLQSYEIPRDFLVETTPFTLENGLLTGIRKLARPKLKAHYGERLEQLYTDLAEGQANELRELRRNGADRPVVETVSRAAVALLGASVTDLRSDAHFTDLGGDSLSALSFSNLLHEIFDVDVPVGVIVSPATDLAGVAAYIEGELRGSKRPTYASVHGRDATEVRARDLALGKFIDAKTLSAAPGLPRSGTEIRTVLLTGATGFLGRYLALEWLERMDLVDGKVICLVRARSDDEARARLDATFDTGDATLLEHYRALAADHLEVIAGDKGEADLGLDHDTWQRLADTVDLIVDPAALVNHVLPYSQMFGPNALGTAELIRIALTTTIKPYVYVSTIGVGQGISPEAFVEDADIREISATRRVDDSYANGYGNSKWAGEVLLREAHDWCGLPVSVFRCDMILADTTYSGQLNLPDMFTRLMLSLVATGIAPGSFYELDADGNRQRAHYDGLPVEFIAEAISTIGSQVTDGFETFHVMNPYDDGIGLDEYVDWLIEAGYPVHRVDDYATWLSRFETALRALPERQRQASLLPLLHNYQQPSPPVCGAMAPTDRFRAAVQDAKIGPDKDIPHVTADVIVKYISNLQMLGLL | 66.15 ± 9.48 mM | 2.32 ± 0.22 s⁻¹ | 35.1 ± 3.29 M⁻¹ s⁻¹ |
